This note sets out measurements from paper PMC11871226 (Nature Communications, 2025).

The assay concerns the target Purified human ACSS2 (bacterially expressed) (human, UniProt Q9NR19 1-701). The assay can be described thus: pull-down.

Chain of Purified human ACSS2 (bacterially expressed) (Q9NR19 whole entry): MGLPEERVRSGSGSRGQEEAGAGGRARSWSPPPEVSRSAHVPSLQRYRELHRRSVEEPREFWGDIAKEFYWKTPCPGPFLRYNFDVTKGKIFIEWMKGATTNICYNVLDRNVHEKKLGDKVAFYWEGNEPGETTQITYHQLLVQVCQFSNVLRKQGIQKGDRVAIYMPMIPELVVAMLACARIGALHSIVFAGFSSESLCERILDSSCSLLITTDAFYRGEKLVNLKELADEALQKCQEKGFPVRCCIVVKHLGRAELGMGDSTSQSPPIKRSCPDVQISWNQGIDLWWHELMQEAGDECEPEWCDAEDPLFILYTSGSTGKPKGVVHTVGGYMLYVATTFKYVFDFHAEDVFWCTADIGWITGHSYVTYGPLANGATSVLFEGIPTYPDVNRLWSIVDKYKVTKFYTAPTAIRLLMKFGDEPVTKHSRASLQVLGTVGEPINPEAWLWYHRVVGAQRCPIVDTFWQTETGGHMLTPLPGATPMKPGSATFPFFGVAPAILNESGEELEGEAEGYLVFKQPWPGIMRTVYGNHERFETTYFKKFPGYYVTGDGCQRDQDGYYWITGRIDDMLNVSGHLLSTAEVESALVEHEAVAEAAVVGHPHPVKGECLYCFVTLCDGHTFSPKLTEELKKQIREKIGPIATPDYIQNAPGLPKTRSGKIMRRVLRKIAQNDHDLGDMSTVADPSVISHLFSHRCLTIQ

B1: Purified human PAICS (bacterially expressed) (natural protein, UniProt P22234 1-425, looked up)
chain: MATAEVLNIGKKLYEGKTKEVYELLDSPGKVLLQSKDQITAGNAARKNHLEGKAAISNKITSCIFQLLQEAGIKTAFTRKCGETAFIAPQCEMIPIEWVCRRIATGSFLKRNPGVKEGYKFYPPKVELFFKDDANNDPQWSEEQLIAAKFCFAGLLIGQTEVDIMSHATQAIFEILEKSWLPQNCTLVDMKIEFGVDVTTKEIVLADVIDNDSWRLWPSGDRSQQKDKQSYRDLKEVTPEGLQMVKKNFEWVAERVELLLKSESQCRVVVLMGSTSDLGHCEKIKKACGNFGIPCELRVTSAHKGPDETLRIKAEYEGDGIPTVFVAVAGRSNGLGPVMSGNTAYPVISCPPLTPDWGVQDVWSSLRLPSGLGCSTVLSPEGSAQFAAQIFGLSNHLVWSKLRASILNTWISLKQADKKIRECNL
Regarding B1, the binding result was “binds”.
